In patent publication US20130109581A1, “POSITIVELY CHARGED SPECIES AS BINDING REAGENTS IN THE SEPARATION OF PROTEIN AGGREGATES FROM MONOMERS” (priority 2009, published 2013):
Where “and” joins values, the source holds several entries; their conditions need not be identical. Identical values can stand only once. Like-named read-outs stand apart in the source and are kept apart here.

What was measured:
[1] = molecular target: Abeta 1-42 monomer (UniProt P05067); experiment: MPA, unspiked CSF background, ZW3-14 wash
[2] = molecular target: Abeta 1-40 monomer (UniProt P05067); experiment: MPA bead capture, Abeta 1-40 read-out of the CSF sample (noise)
[3] = molecular target: Abeta 1-42 globulomer (UniProt P05067); experiment: MPA, globulomer Abeta 42 RLU over average Abeta 40 RLU, Pluronic F-127 wash
[4] = molecular target: Abeta 1-42 globulomer (UniProt P05067); experiment: MPA, CSF + 0.5 ng/mL globulomer, ASB-16 wash
[5] = molecular target: Abeta 1-42 globulomer (UniProt P05067); experiment: MPA, CSF + 0.5 ng/mL globulomer, Pluronic F-127 wash
[6] = molecular target: Abeta 1-42 monomer (UniProt P05067); experiment: MPA, unspiked CSF background, ASB-16 wash
[7] = molecular target: Abeta 1-42 globulomer (UniProt P05067)
[8] = molecular target: ASPD (Abeta42 aggregate) (UniProt P05067); experiment: MPA, serial dilutions in CSF, LoD = 2x over background
[9] = molecular target: Abeta 1-42 globulomer (UniProt P05067); experiment: as above
[10] = molecular target: Abeta42 fibrils (UniProt P05067); experiment: as above
[11] = molecular target: ADDL (Abeta42 aggregate) (UniProt P05067); experiment: as above
[12] = molecular target: Abeta (1-42) aggregates from Alzheimer's Disease Brain Homogenate (human) (UniProt P05067); experiment: as above
[13] = molecular target: Abeta 1-42 monomer (UniProt P05067); experiment: MPA, unspiked CSF background, ASB-C8phn wash
[14] = molecular target: Abeta 1-42 globulomer (UniProt P05067); experiment: MPA, 0.5 over 0 ng/mL globulomer in CSF, Brij 35 wash
[15] = molecular target: ASPD (Abeta42 aggregate) (UniProt P05067); experiment: MPA, serial dilutions in CSF, LoD = 2x over background; remark: listed apart in the source
[16] = molecular target: Abeta 1-42 globulomer (UniProt P05067); experiment: as above; remark: listed apart in the source
[17] = molecular target: Abeta42 fibrils (UniProt P05067); experiment: as above; remark: listed apart in the source
[18] = molecular target: ADDL (Abeta42 aggregate) (UniProt P05067); experiment: as above; remark: listed apart in the source
[19] = molecular target: Abeta 1-42 monomer (UniProt P05067); experiment: as above
[20] = molecular target: Abeta 1-42 globulomer (UniProt P05067); experiment: MPA, globulomer Abeta 42 RLU over average Abeta 40 RLU, ASB-14 wash
[21] = molecular target: Abeta 1-42 globulomer (UniProt P05067); experiment: MPA, pulldown in CSF, 1% TW20 wash
[22] = molecular target: Abeta 1-42 globulomer (UniProt P05067); experiment: MPA, globulomer Abeta 42 RLU over average Abeta 40 RLU, Brij 35 wash
[23] = molecular target: Abeta 1-42 globulomer (UniProt P05067); experiment: MPA, 0.5 over 0 ng/mL globulomer in CSF, ASB-C8phn wash
[24] = molecular target: Abeta 1-42 globulomer (UniProt P05067); experiment: MPA, 0.5 over 0 ng/mL globulomer in CSF, Pluronic F-127 wash
[25] = molecular target: Abeta 1-42 globulomer (UniProt P05067); experiment: MPA, globulomer Abeta 42 RLU over average Abeta 40 RLU, ZW3-16 wash
[26] = molecular target: Abeta 1-42 globulomer (UniProt P05067); experiment: MPA, PSR1 beads, globulomer spiked into buffer (TBSTT)
[27] = molecular target: Abeta 1-42 globulomer (UniProt P05067); experiment: MPA, globulomer Abeta 42 RLU over average Abeta 40 RLU, ZW3-14 wash
[28] = molecular target: Abeta 1-42 globulomer (UniProt P05067); experiment: MPA, CSF + 0.5 ng/mL globulomer, ASB-14 wash
[29] = molecular target: Abeta 1-42 monomer (UniProt P05067); experiment: MPA, unspiked CSF background, Empigen wash
[30] = molecular target: PrPSc, prion aggregates of prion infected hamster (Syrian hamster) (UniProt P04273); experiment: cell-based or functional assay
Chain of PrPSc, prion aggregates of prion infected hamster (Syrian hamster) (P04273 23-231 limits assumed): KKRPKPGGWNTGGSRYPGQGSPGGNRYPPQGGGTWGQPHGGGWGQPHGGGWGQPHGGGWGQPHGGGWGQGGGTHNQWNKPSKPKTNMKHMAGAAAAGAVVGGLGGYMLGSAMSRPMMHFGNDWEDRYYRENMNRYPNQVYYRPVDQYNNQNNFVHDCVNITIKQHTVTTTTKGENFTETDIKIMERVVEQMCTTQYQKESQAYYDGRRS

[31] = molecular target: Abeta 1-42 globulomer (UniProt P05067); experiment: MPA, PSR1 beads, globulomer spiked into normal CSF
[32] = molecular target: Abeta 1-42 globulomer (UniProt P05067); experiment: MPA, pulldown in CSF, no added detergent wash
[33] = molecular target: Abeta 1-42 globulomer (UniProt P05067); experiment: MPA, CSF + 0.5 ng/mL globulomer, ZW3-08 wash
[34] = molecular target: Abeta 1-42 globulomer (UniProt P05067); experiment: MPA, globulomer Abeta 42 RLU over average Abeta 40 RLU, Empigen wash
[35] = molecular target: Abeta 1-42 globulomer (UniProt P05067); experiment: MPA, globulomer Abeta 42 RLU over average Abeta 40 RLU, ZW3-08 wash
[36] = molecular target: Abeta 1-42 globulomer (UniProt P05067); experiment: MPA, 0.5 over 0 ng/mL globulomer in CSF, ASB-14 wash
[37] = molecular target: Abeta 1-42 globulomer (UniProt P05067); experiment: MPA, CSF + 0.5 ng/mL globulomer, Brij 35 wash
[38] = molecular target: Abeta 1-42 monomer (UniProt P05067); experiment: MPA, unspiked CSF background, ZW3-12 wash

“PSR1 (peptoid, directly conjugated to Dynal M270 beads)” was tested, and the Abeta 42 RLU, 0 ng/mL Average [1] was 110 RLU, the average RLU (40) [2] was 234 RLU and the S/N Abeta 42 globulomer-spiked/Abeta 40 [3] was 0.9. For the same substance, the Abeta 42 RLU, 0.5 ng/mL Average [4] was 789 RLU, the Abeta 42 RLU, 0.5 ng/mL Average [5] was 739 RLU and the Abeta 42 RLU, 0 ng/mL Average [6] was 95.7 RLU. It also gave a LoD of globulomer, RLU (S/N = 2) [7] of 199 RLU, a LoD of globulomer, pg/mL (Cal) [7] of 2.33 pg/mL and a S/N at 25.3 pg/mL [7] of 10.3. It also gave a LoD [8] of 200 pg/mL, a LoD [9] of 75 pg/mL and a LoD [10] of 50 pg/mL. The LoD [11] was 200 pg/mL, the LoD [12] was < 5 pg/mL and the Abeta 42 RLU, 0 ng/mL Average [13] was 101 RLU. The S/N Abeta 42 globulomer-spiked/unspiked [14] was 6.3, the LoD [15] was 200 pg/mL and the LoD (amol) [15] was 20 amol. For the same substance, the LoD [16] was 75 pg/mL, the LoD (amol) [16] was 140 amol and the LoD [17] was 50 pg/mL. For the same substance, the LoD (amol) [17] was < 2 amol, the LoD [18] was 200 pg/mL and the LoD (amol) [18] was 20 amol. The LoD [19] was 1000 pg/mL, the LoD (amol) [19] was 22000 amol and the S/N Abeta 42 globulomer-spiked/Abeta 40 [20] was 2. For the same substance, the LoD of globulomer, RLU (S/N = 2) [21] was 211 RLU, the LoD of globulomer, pg/mL (Cal) [21] was 2.52 pg/mL and the S/N at 25.3 pg/mL [21] was 11. For the same substance, the S/N Abeta 42 globulomer-spiked/Abeta 40 [22] was 1, the S/N Abeta 42 globulomer-spiked/unspiked [23] was 9.3 and the S/N Abeta 42 globulomer-spiked/unspiked [24] was 6.3. It also gave a S/N Abeta 42 globulomer-spiked/Abeta 40 [25] of 3.7, a limit of detection (LoD) [26] of 5 pM and a S/N Abeta 42 globulomer-spiked/Abeta 40 [27] of 2.2. The Abeta 42 RLU, 0.5 ng/mL Average [28] was 779 RLU, the Abeta 42 RLU, 0 ng/mL Average [29] was 76.7 RLU and the Attack rate (Clinical TSE/total inoculated), Pool 2 [30] was 100%. It also gave an Attack rate (Clinical TSE/total inoculated), Pool 3 (pre-symptomatic) [30] of 50%, an Attack rate (Clinical TSE/total inoculated), Pool 4 [30] of 100% and a Mean incubation period (days), Pool 1 [30] of 94 dpi. The Mean incubation period (days), Pool 2 [30] was 74 dpi, the Mean incubation period (days), Pool 4 [30] was 76 dpi and the incubation period (days), Pool 3 (pre-symptomatic) [30] was 56 days and 85 days. The limit of detection (LoD) [31] was 10 pM, the LoD of globulomer, RLU (S/N = 2) [32] was 456 RLU and the LoD of globulomer, pg/mL (Cal) [32] was 6.16 pg/mL. The S/N at 25.3 pg/mL [32] was 5.7, the Abeta 42 RLU, 0.5 ng/mL Average [33] was 669 RLU and the S/N Abeta 42 globulomer-spiked/Abeta 40 [34] was 2.6. The S/N Abeta 42 globulomer-spiked/Abeta 40 [35] was 0.9, the S/N Abeta 42 globulomer-spiked/unspiked [36] was 8.7 and the Abeta 42 RLU, 0.5 ng/mL Average [37] was 741 RLU. It also gave an Abeta 42 RLU, 0 ng/mL Average [38] of 90.7 RLU.
